Earlier results on six substances are cited in publication PMC3471675.

Read-outs that look alike come from different tables or passages of the source.

Targets include IL-4Rα (Homo sapiens) (UniProt P24394); γc (Homo sapiens) (UniProt P31785); IL-21Rα (Homo sapiens) (UniProt Q9HBE5).
The target of data set [1] is IL-2Rβ (Homo sapiens) (UniProt P14784).
Data set [2] shares this target. This is another data set of the same source.
Data set [3] addresses IL-7Rα (Homo sapiens) (UniProt P16871).
Data set [4] has the same target. The source holds these as a separate data set.

Chain of UniProt P31785 (P31785 23-262): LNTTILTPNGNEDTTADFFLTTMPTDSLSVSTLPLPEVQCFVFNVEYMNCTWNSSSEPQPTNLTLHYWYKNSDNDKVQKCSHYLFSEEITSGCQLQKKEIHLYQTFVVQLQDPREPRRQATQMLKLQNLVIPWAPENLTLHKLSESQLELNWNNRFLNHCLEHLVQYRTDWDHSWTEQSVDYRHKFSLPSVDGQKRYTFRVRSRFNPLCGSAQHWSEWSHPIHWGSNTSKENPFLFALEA
Chain of UniProt P24394 (P24394 26-232): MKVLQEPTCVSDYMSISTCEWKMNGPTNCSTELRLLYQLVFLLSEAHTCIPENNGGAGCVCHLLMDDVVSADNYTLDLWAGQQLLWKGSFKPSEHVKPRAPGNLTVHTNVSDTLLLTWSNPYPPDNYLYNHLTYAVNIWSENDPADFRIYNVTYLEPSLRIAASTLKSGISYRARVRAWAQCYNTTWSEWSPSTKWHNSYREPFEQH
Chain of UniProt Q9HBE5 (Q9HBE5 20-232): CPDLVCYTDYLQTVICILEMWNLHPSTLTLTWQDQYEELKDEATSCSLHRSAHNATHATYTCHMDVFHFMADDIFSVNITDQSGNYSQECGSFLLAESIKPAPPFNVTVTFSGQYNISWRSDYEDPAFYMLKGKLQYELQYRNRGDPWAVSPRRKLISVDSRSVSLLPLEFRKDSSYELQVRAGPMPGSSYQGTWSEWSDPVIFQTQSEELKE

For the substance IL-2 (from UniProt P60568), the Kd (commonly a measure of binding affinity in units of concentration) with IL-2Rβ (Homo sapiens) [1] was 530 nM.

Turning to IL-2Rβ (from UniProt P14784), the Kd with IL-2Rβ (Homo sapiens) [2] was 3000 nM.

As for IL-4 (from UniProt P05112), the Kd with IL-4Rα (Homo sapiens) is 0.15 nM.

Take IL-7 (from UniProt P13232): the Kd with IL-7Rα (Homo sapiens) [3] was 59 nM.

For IL-7Rα (from UniProt P16871), the Kd was 3000 nM in the data set with γc (Homo sapiens) and 610000 nM with IL-7Rα (Homo sapiens) [4].

As for IL-21 (from UniProt Q9HBE4), the equilibrium dissociation constant (Kd) with IL-21Rα (Homo sapiens) was 0.07 nM.
